Assay results: patent CN115368461A (JIANGSU HENGRUI MEDICINE CO; SHANGHAI HENGRUI …, dated 2022)

T1: 人TROP2-his (huTROP2-His), ACRO TR2-H5223 (human, UniProt P09758 27-274)
T1 construct: Bought His-tagged human TROP2 protein (ACRO)
T1 sequence: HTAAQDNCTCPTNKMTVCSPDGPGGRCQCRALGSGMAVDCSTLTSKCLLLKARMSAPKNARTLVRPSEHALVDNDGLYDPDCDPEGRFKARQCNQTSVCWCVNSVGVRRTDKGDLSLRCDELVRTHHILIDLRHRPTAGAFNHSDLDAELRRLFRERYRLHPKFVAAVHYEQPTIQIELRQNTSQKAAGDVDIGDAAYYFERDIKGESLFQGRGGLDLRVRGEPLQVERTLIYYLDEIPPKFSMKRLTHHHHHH

T2: TROP2 on FaDu cells (high huTROP2 expression) and SK-OV-3 cells (low TROP2 expression) (human, UniProt P09758 27-323)
T2 sequence (looked up): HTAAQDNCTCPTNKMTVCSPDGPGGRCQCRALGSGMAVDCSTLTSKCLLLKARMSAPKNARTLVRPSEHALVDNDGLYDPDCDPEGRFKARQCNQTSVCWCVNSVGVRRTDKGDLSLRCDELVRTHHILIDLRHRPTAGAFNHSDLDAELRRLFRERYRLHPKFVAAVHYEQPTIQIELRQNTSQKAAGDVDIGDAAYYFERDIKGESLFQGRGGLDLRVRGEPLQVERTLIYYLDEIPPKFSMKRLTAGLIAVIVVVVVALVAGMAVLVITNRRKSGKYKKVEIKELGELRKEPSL

T3: CHO细胞表面表达的人TROP2 (huTROP-2 CHO-K1 cells) (human, UniProt P09758 27-323)
T3 construct: Untagged human TROP2 stably expressed on CHO-K1 cells; The cells were fixed with paraformaldehyde in the cell ELISA; also called CHO-K1/hTROP2
T3 sequence: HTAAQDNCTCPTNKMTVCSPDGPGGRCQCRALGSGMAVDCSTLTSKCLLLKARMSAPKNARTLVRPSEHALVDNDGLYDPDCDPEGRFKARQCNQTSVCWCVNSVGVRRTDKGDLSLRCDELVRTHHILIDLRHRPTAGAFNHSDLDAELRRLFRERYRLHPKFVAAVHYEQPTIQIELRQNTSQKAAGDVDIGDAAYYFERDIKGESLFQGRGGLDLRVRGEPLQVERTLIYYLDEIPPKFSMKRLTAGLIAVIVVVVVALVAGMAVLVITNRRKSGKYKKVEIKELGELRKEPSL


Key:
[1] = target: T1, 人TROP2-his (huTROP2-His), ACRO TR2-H5223; assay: Biacore T200 SPR; antibody captured on Protein A chip, huTROP2-his as analyte, 1:1 model
[2] = target: T2, TROP2 on FaDu cells (high huTROP2 …); assay: cell-based or functional assay
[3] = target: T3, CHO细胞表面表达的人TROP2 (huTROP-2 CHO-K1 cells); assay: cell ELISA on fixed huTROP-2 CHO-K1 cells
[4] = target: T1, 人TROP2-his (huTROP2-His), ACRO TR2-H5223; assay: ForteBio Octet BLI; antibody on Protein A sensor, 100nM antigen

Kd [1] [nM]	IC50(nM), DT3C内吞杀伤实验 on FaDu cells [2] [nM]	Imax(%), DT3C内吞杀伤实验 on FaDu cells [2] [%]	binding result [3]	binding result [4]	Binder
0.691	0.0643	97.5			hu53-02 (antibody, human IgG1, kappa, V domains shown, also called mAb53 VH1 + VL2) VH: EVQLVQSGAEVKKPGASVKVSCKASGYTFTSYWITWVRQAPGQGLEWMGNIHPGSSTTNYNEKFKSRVTMTRDTSTSTVYMELSSLRSEDTAVYYCAREVGDYWGQGTTVTVSS VL: EIVLTQSPATLSLSPGERATLSCRASQIIGTSIHWYQQKPGQAPRLLIKYVSESISGIPARFSGSGSGTDFTLTISSLEPEDFAVYYCQQSHSWPFTFGGGTKVEIKR
0.202	0.0094	100			hu29-12 (antibody, human IgG1, kappa, V domains shown, also called mAb29 VH4 + VL3) VH: EVKLVESGGGLVQPGGSLRLSCAASGFSFSDYYMYWVRQAPGKGLEWVANIDNVGDTTYYPDTVKGRFTISRDNAKNSLYLQMNSLRAEDTAVYYCARHDPLTGPPFFAMDYWGQGTTVTVSS VL: DIQMTQSPSSLSASVGDRVTITCKASQGINQYIAWYQQKPGKGPKLLIHYTSTLQPGVPSRFSGSGSGRDYTFTISSLQPEDIATYYCLQYDNLWTFGGGTKVEIKR
			binds	binds	mAb53 (antibody, V domains shown, Murine hybridoma monoclonal antibody; the murine constant regions are not; also called 鼠源mAb53; 鼠源抗体mAb53) VH: QVQLQQPGAELVKPGASVKMSCKASGYTFTSYWITWVKQRPGQGLEWIGNIHPGSSTTNYNEKFKSKATLTVHTSSSTVYMQLTSLTSEDSAVYYCAREVGDYWGQGTSVTVSS VL: DILLTQSPAILSVSPGERASFSCRASQIIGTSIHWYQQRTNGSPRLLIKYVSESISGIPSRFSGSGSGTDFTLSINSVESEDIADYYCQQSHSWPFTFGGGTKL
			binds	binds	mAb29 (antibody, V domains shown, Murine hybridoma monoclonal antibody; the murine constant regions are not; In the cell ELISA it was detected with goat anti-mouse IgG-HRP; also called 鼠源mAb29; 鼠源抗体mAb29) VH: EVKLVESGGDLVQPGGSLKLSCAASGFSFSDYYMYWVRQTPEKRLEWVANIDNGGDTTYYPDTVKGRFTISRDNAKNTLYLQMSRLKSEDTAMYYCARHDPLTGPPFFAMDYWGQGTSVTVSS VL: DIQMTQSPSSLSASLGGKVTISCKASQGINQYIAWYQLKPGKGPRLLIHYTSTLQPGVPSRFSGSGSGRDYSFSISNLEPEDIASYYCLQYDNLWTFGGGTKLEIK
	0.069	97.7			hRS7 (antibody, human IgG1, kappa, V domains shown) VH: QVQLQQSGSELKKPGASVKVSCKASGYTFTNYGMNWVKQAPGQGLKWMGWINTYTGEPTYTDDFKGRFAFSLDTSVSTAYLQISSLKADDTAVYFCARGGFGSSYWYFDVWGQGSLVTVSS VL: DIQLTQSPSSLSASVGDRVSITCKASQDVSIAVAWYQQKPGKAPKLLIYSASYRYTGVPDRFSGSGSGTDFTLTISSLQPEDFAVYYCQQHYITPLTFGAGTKVEIKR
17					TINA (antibody, human IgG1, kappa, V domains shown, Control antibody built according to WO2015098099A1; also called TINA抗体; 阳性对照抗体TINA) VH: QVQLVQSGAEVKKPGASVKVSCKASGYTFTTAGMQWVRQAPGQGLEWMGWINTHSGVPKYAEDFKGRVTISADTSTSTAYLQLSSLKSEDTAVYYCARSGFGSSYWYFDVWGQGTLVTVSS VL: DIQMTQSPSSLSASVGDRVTITCKASQDVSTAVAWYQQKPGKAPKLLIYSASYRYTGVPSRFSGSGSGTDFTLTISSLQPEDFAVYYCQQHYITPLTFGQGTKLEIKR
